Three molecules from patent publication US20120114652A1 can be followed below.

The target of assay [1] is cynomolgus PAI-1 (cynomolgus). The experiment in a line: cell-based or functional assay.
Another assay addresses T1, rat PAI-1 (rat) (UniProt P20961).
T1 sequence: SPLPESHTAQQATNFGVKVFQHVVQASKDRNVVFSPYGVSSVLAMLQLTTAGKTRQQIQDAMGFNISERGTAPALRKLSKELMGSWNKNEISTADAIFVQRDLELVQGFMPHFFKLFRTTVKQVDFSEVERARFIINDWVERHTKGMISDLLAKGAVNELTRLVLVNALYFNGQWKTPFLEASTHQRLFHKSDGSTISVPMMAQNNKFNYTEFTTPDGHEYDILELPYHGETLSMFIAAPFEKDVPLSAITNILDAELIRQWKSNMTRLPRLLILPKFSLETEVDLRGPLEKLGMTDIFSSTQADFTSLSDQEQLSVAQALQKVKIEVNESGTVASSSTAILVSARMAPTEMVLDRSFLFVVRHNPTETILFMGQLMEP
The experiment in a line: cell-based or functional assay.

The next assay has as its target T2, mouse PAI-1 (mouse) (UniProt P22777).
T2 sequence: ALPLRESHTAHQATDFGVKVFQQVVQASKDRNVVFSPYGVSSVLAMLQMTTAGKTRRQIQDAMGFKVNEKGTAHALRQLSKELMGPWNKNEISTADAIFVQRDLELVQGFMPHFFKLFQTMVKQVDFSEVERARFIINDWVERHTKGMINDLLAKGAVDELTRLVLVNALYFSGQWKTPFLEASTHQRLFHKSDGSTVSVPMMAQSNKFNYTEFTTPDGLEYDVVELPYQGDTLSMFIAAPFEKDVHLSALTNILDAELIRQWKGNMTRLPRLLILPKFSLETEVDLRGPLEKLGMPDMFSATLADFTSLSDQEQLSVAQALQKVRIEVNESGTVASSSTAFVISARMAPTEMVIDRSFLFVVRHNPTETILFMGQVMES
The experiment in a line: cell-based or functional assay.

Assay [2] concerns the target human PAI-1, active, wild-type, non-glycosylated (E. coli-derived) (human) (UniProt P05121). The experiment in a line: cell-based or functional assay.
The target in assay [3] is Antibody 16, IgG1, not germlined. Put plainly: competition binding assay: Antibody 16 IgG adsorbed to the plate, biotinylated active human PAI-1 at about its KD, dilution series of the unlabelled competitor (the varied molecule), detection with streptavidin-Europium.

B1: PICK167_A01 scFv (scFv)
scFv: QVQLQQSGAEVKKPGSSVKVSCKASGGTFSSYAISWVRQAPGQRLEWMGGIIPTFGTANYAQKFQGRVTITADESTSTAYMELSGLRSEDTAVYYCARERRQWLEGHFDYWGRGTPVTVSSGGGGSGGGGSGGGGSDIQMTQSPSFLSASIGDRVTITCRASEGIYHNLAWYQQKPGKAPKLLIYKASSLASGAPSRFSGSRSGTDFTLTISSLQPDDFATYYCQQYSNYPLTFGGGTKLEIKR
Regarding B1, the IC50, PAI-1:tPA functional assay was found to be 1.02 nM in assay [1], 2.98 nM with rat PAI-1 (rat) and 3.2 nM in assay [2]. Also, the values for the IC50, HT1080 plasminogen activation assay (with rat PAI-1 (rat); with mouse PAI-1 (mouse); in assay [2]) were 49 nM, 25 nM and 22 nM, respectively. Moreover, the pIC50, HT1080 plasminogen activation assay came to 7.31 in the assay with rat PAI-1 (rat), 7.6 with mouse PAI-1 (mouse) and 7.65 in assay [2].

B2: rat PAI-1 (protein)
chain: T1 sequence
As to B2, the IC50 (read off the curve) in assay [3] is 2 nM.

B3: mouse PAI-1 (protein)
chain: T2 sequence
As to B3, the IC50 (read off the curve) in assay [3] stood at 5 nM.
